Measured values as given in patent publication US9505823.

Biological target: IGF-I receptor (on L6 cells) (UniProt P24062)
Assay: cell-based or functional assay

Sequence of UniProt P24062 (P24062 31-1370 limits assumed): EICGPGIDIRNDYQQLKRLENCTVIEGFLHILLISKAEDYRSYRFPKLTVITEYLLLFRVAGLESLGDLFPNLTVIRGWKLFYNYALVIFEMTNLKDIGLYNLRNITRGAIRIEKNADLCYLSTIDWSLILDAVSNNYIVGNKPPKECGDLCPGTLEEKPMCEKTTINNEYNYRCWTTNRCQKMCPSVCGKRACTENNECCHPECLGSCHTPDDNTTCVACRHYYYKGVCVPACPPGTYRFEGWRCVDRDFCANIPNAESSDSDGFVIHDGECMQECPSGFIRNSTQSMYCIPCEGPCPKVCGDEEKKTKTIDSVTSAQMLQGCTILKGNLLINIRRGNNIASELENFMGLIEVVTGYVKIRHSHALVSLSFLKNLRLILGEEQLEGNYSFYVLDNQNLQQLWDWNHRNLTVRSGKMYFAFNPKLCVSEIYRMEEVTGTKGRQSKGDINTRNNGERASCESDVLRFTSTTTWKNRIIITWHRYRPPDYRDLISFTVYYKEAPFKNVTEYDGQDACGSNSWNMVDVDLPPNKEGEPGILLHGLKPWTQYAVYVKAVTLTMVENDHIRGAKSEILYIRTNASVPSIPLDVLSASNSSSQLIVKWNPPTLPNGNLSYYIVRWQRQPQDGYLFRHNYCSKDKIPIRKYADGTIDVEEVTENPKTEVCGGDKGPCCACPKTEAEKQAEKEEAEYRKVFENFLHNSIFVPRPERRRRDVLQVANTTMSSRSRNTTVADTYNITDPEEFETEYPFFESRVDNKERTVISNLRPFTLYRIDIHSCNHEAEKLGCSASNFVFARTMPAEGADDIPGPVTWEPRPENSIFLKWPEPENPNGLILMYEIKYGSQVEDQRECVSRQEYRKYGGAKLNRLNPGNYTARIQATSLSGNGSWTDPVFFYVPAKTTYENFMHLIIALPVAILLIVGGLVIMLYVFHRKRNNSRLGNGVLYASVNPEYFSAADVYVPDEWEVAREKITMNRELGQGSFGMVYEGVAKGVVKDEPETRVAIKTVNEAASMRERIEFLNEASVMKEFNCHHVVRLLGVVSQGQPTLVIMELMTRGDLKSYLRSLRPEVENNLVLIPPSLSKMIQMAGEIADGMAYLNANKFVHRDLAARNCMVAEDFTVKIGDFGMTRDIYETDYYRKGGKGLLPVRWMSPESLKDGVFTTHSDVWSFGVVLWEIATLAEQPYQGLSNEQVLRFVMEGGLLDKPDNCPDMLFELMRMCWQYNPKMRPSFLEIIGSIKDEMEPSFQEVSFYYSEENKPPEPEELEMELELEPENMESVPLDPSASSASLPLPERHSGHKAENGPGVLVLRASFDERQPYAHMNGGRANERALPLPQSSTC

Row | Substance | EC50 of L6 cell proliferation (CellTiter-Glo, 2 days) [nM] | EC50 of mitogenic activity, L6 cells [nM] | Percent mitogenic activity, L6 cells (insulin = 100) [percent]
1 | IGF-I (from UniProt P05019 49-118) (ligand) | 0.04 | 0.07 | 5230
2 | Levemir (ligand) | – | 14.8 | 24.7
3 | Glargine (Lantus, Aventis) (ligand) | 0.9 | 4.73 | 77
